From US11859229B2, “Polyvinyl alcohol-degrading enzyme and process for producing the same” (Hayashibara Co., Ltd., priority 2017, dated 2024)

Key:
Assay type in all cases: biochemical
[1] = Assay for PVA-oxidizing activity (hydrogen peroxide formation, titanium reagent, A410)
Method: As shown in the above (1), the PVA-degrading enzyme of the present invention has an PVA-oxidizing activity, i.e., an activity of catalyzing the reaction of oxidizing PVA as substrate and forming hydrogen peroxide. For example, the PVA-oxidizing activity can be measured by the following method.
To 0.5 mL of a substrate solution prepared by dissolving PVA (Reagent grade polyvinyl alcohol, polymerization degree: 2,000, Nacalai Tesque Inc., Kyoto, Japan) into 100 mM sodium phosphate buffer (pH 7.0) to give a concentration of 2% (w/v), 15 µL of 2% (w/v) of sodium azide solution was added, and then 0.5 mL of an enzyme solution is further added and reacted with shaking at 27° C. for 60 min. After the 60 min-reaction, the reaction was stopped by mixing 0.32 mL of the reaction mixture to 0.8 mL of a titanium reagent, and the yellow color, produced by reacting hydrogen peroxide formed by the enzyme reaction and the titanium reagent, was measured by measuring the absorbance at 410 nm (A410) as an index. Separately, the enzyme solution was added to the substrate solution, and the resulting mixture is immediately mixed with the titanium reagent. The resulting mixture was similarly measured its color and the value was used as the value at the reaction zero minutes. Then, the amount of the formed hydrogen peroxide is determined and the PVA-oxidizing activity is calculated based on the following formula. It is known that the absorbance at 410 nm (A410) increases by “1” when 3.65 […]mole/mL of hydrogen peroxide is formed. Therefore, in the following Formula 1, the coefficient of “3.65” has been multiplied. One unit of the PVA-oxidizing activity is defined as the amount of enzyme that forms 1 […]mole of hydrogen peroxide per min under the above conditions. Titanium reagent is prepared by diluting 5% titanium sulfate (IV) solution, commercialized by Nacalai Tesque Inc., Kyoto, Japan, 25-fold with 10% (w/w) sulfuric acid.

[2] = Thermal stability and pH stability (residual PVA-oxidizing activity); details: 10 mM phosphate buffer, pH 7.0, 60 min
Method: To 0.5 mL of a substrate solution prepared by dissolving PVA (Reagent grade polyvinyl alcohol, polymerization degree: 2,000, Nacalai Tesque Inc., Kyoto, Japan) into 100 mM sodium phosphate buffer (pH 7.0) to give a concentration of 2% (w/v), 15 µL of 2% (w/v) of sodium azide solution was added, and then 0.5 mL of an enzyme solution is further added and reacted with shaking at 27° C. for 60 min. After the 60 min-reaction, the reaction was stopped by mixing 0.32 mL of the reaction mixture to 0.8 mL of a titanium reagent, and the yellow color, produced by reacting hydrogen peroxide formed by the enzyme reaction and the titanium reagent, was measured by measuring the absorbance at 410 nm (A410) as an index. Separately, the enzyme solution was added to the substrate solution, and the resulting mixture is immediately mixed with the titanium reagent. The resulting mixture was similarly measured its color and the value was used as the value at the reaction zero minutes. Then, the amount of the formed hydrogen peroxide is determined and the PVA-oxidizing activity is calculated based on the following formula. It is known that the absorbance at 410 nm (A410) increases by “1” when 3.65 […]mole/mL of hydrogen peroxide is formed. […]
In the two purified preparations of the PVA-degrading enzyme, PVA-A was used for investigating thermal stability and pH stability using PVA-oxidizing activity as an index according to the assay method. Thermal stability was determined by the steps of incubating the enzyme solution (in 10 mM phosphate buffer, pH 7.0) at various temperature for 60 min, cooling in water, and then measuring the residual enzyme activity. pH Stability was determined by the steps of incubating the enzyme solution in 100 mM buffer with different pH at 4° C. for 24 hours, adjusting pH to 7.0, and then measuring the residual enzyme activity. […] In FIG. 6, symbols, “●”, “▪”, “▴” and “♦”, mean values measured by using acetate buffer, phosphate buffer, glycine-NaOH buffer, and potassium chloride-NaOH buffer, respectively, for pH control.

[3] = PVA-degrading (viscosity-reducing) activity; details: at each purification step
Method: While, activity as a PVA-degrading enzyme can be measured, for example, by measuring the viscosity reduction of a PVA solution, caused by the degradation of PVA, as an index using the following method.
To 0.5 mL of a substrate solution prepared by dissolving PVA (Reagent grade polyvinyl alcohol, polymerization degree: 2,000, Nacalai Tesque Inc., Kyoto, Japan) into 100 mM sodium phosphate buffer (pH 7.0) to give a concentration of 2% (w/v), 15 µL of 2% (w/v) of sodium azide solution was added, and then 0.5 mL of an enzyme solution is further added and reacted with shaking at 27° C. for 60 min. After the reaction, 0.6 mL of the reaction mixture was withdrawn and its viscosity was measured using a Cone plate-type viscometer (“DV-II+Pro”, Brookfield Co., Ltd.) at 30° C. Separately, the enzyme solution was added to the substrate solution and the viscosity was measured immediately, and the viscosity was used as that at zero-min reaction. The PVA-degrading activity was calculated based on the following formula. One unit of the PVA-degrading activity was defined as the amount of enzyme that causes a 10%-reduction of relative viscosity per min under the above conditions. […]

B1: PVA-A: purified PVA-degrading hybrid enzyme from Pseudomonas sp. VT1B strain, amino acid sequence of SEQ ID NO: 2 (protein, listed as Pseudomonas sp.)
chain: AENWPMFGKNYENTRATSDTQISTANISTLNVVRRTTDGGITGTPTVVDGVAYYSDFSGYVKAVRVSDGVVLWRVRPQTTMLSPSPFVTADTVYVAGNNSYVYALNRANGAVRWTTQIETSPNSRISSSPIVVGNILIIGTGSYQVFLPATPMFRGRVAFLNATTGAILPYSTNMCPSASCGGGISVWSTAAIDESTRTGYIGTGQAYRDPAGPYSDALVAFNIDTGAIRWARQFLANDVYQLGGTLRYDYDVGAAPNLFVANGQRMVGVGGKDGTYRAFNRDTGAPIWNTPVGRGSAIGGVMQSTAYGDGRIYVTSNTSTIGSGRNDPVPATAEASALDAATGAPVWIRQLDAGGFGGVAYANGLMYASTWDGRLRVFNAANGNIVREVQVSPSRGAYVPAPTDGFPNGSAGGPVVYGNRVLMGYGWTWVLNINGGLTTMEATVGGGASQTVTLASSSDTYVQSGTPTTNYAYDVNLLARLADAEGLTRASFLQFPLTAVPAGTITSARLRLYGRHDAPTGTGQSVSVWPGTKTTTWSGPNVTYNNSSTETGVDFYATSSIATATVGITPQYYEWNVTDYVASRRSLGHATFGVAVNSAHQYRVTLNSADNTANRPELVVTVSGGTGSQLPGSCPSGFTARAGVNQGFMHNGVARGFVLNVPANVSTPRPVFVSLTGSVESTNENLGARGGAGALNNDGFLVIGPVRRCAGQDPNGAGTSVNGGTCNQAGTGGWNWNPWNEGRVFAAAGDPWKTAEGPDSQFLEAVVRCVAASYPVDSTRMYLGGISSGATMTHRALLFNSDFWAGGLPLSGEWYVSQDNGTAYPGADEFAARRQAVINNPTKIFQGRVGPLPLPATQSPMIVISMWGGANDIWYCGSTLCADYRPSTQAASNYFSALPNVVHVACSSSHGHQWPTQNRAAFNTWAATTLASHPKGTPASSFVLPPPPAGYSCRVGRYTDHYSGT
Specific activity ([1]; PVA-oxidizing activity per mg protein at each purification step): 3.2 U/mg | Total Activity (PVA-oxidizing activity) ([1]; at each purification step, from 4 L culture supernatant): 5.4 U | Thermal stability of PVA-oxidizing activity [2]: up to 45 °C | Total PVA-Degrading Activity (Viscosity-reducing Activity) [3]: 8.2 U
